Source: patent US20080319163A1, “Method for Isolating and Purifying Immuno-Modulating Polypeptide from Cow Placenta” (priority 2005, published 2008)
Entries after “also recorded” stand apart in the source; their conditions may differ.

Experiments:
[1] = Isoelectric point by CIEF (capillary isoelectric focusing); format: physicochemical; conditions: determined by CIEF
Text: 3) Determining isoelectric point of immuno-modulating polypeptide by CIEF.
The foresaid methods 2)-5) are the normal methods known as those skilled in the art.

[2] = test system: mice spleen lymphocyte; assay: Stimulating lymphocyte proliferation in vitro (MTT method); format: cell-based; conditions: mice spleen lymphocyte suspension, 68 h + 4 h MTT, OD 570 nm; chromatography fractions screened; values only in figures; listed as component 4
Method: 1) Stimulating Lymphocyte Proliferation in vitro
Culturing Cells • 1 Preparing Spleen Lymphocyte Suspension:
Remove out the mice spleen under sterile condition, separate lymphocyte by lymphocyte separation medium, regulate the cell concentration to 1×10^6/ml with complete 1640 culture solution. • 2 Experiment Arrangement:
Set control group and experiment group separately to identify the activity of stimulating spleen lymphocyte proliferation by every component. • 3. Experiment Method:
Add 100 μL mice spleen lymphocyte suspension (1×10^6/mL) to 96 well cultured plates. Add 100 μL saline/sample to control group and experiment group separately. Mix to homogenous gently, culture in incubator for 68 h at 37° C. under 5% CO2. Add 20 μl MTT to every well under sterile condition, Mix to homogenous gently, continue to culture for 4 h, add 100 μl dimethyl sulfoxide to every well, keep at room temperature for 10 min, then determine OD of every well by ELISA at 570 nm. • 4. Data Processing
The spleen lymphocyte proliferation rate of experiment group is calculated by the following formula: […]
The value of P is calculated by variance analysis, and significant difference is calculate by T test.

For “Tyr-X-Phe-Leu-Gly-Leu-Pro-Gly-X-Thr [immuno-modulating polypeptide]”, which isoelectric point [1] is on record?
Its isoelectric point is 3.82.

What about the “activity determined by stimulating lymphocyte proliferation in vitro” value [2] of the same substance?
The value was “high-purity inmmuno-modulating polypeptide; also recorded: high-purity immuno-modulating polypeptide”.
